Publication PMC11921551

Assays:
[1] = biological target: Recombinant human LDL receptor (LDLR) (human) (UniProt P01130); test: AFM force spectroscopy; LDLR on the AFM probe through PEG (traditional immersion method), LDL immobilised on mica; PBS pH 7.4, 37 °C; n = 200 interactions
[2] = biological target: Recombinant human LDL receptor (LDLR) (human) (UniProt P01130); test: AFM force spectroscopy; receptor on the AFM probe tip through PEG (micro-droplet method), lipoprotein immobilised on mica; PBS pH 7.4, 37 °C, loading force 0.5 nN for 2 s, loading speed 200 nm/s; n = 200 interactions
[3] = biological target: Recombinant human CD36 (human) (UniProt P16671); test: as above

Recombinant human LDL receptor (LDLR) (human), sequence (P01130 22-788): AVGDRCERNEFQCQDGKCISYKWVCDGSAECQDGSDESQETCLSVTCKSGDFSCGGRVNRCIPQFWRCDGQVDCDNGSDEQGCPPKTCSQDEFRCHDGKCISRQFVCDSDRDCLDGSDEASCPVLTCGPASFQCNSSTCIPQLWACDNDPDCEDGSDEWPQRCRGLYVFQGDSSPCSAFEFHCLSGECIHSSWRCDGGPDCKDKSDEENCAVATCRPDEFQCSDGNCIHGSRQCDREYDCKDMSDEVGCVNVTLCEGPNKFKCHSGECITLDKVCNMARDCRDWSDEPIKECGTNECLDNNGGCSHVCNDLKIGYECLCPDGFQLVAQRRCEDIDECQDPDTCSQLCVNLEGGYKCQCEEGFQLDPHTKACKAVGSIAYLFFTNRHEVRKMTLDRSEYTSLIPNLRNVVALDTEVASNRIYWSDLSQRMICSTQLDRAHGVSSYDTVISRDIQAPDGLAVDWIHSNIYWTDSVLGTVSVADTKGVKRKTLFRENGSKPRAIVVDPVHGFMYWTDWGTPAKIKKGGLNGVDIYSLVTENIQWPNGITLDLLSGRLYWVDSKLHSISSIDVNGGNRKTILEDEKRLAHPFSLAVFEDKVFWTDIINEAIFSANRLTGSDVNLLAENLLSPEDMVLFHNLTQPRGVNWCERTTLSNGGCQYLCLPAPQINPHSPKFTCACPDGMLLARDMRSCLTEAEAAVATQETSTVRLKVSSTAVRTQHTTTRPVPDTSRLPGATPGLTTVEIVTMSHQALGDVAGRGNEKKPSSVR

| average specific interaction force [1] [pN] | average specific interaction force [2] [pN] | average interaction force [3] [pN] | Substance |
| --- | --- | --- | --- |
| 322 | 231 |  | Human low-density lipoprotein (LDL), P04114 28-4563 |
|  |  | 229 | Human oxidized low-density lipoprotein (oxLDL) (from UniProt P04114 28-4563) (complex) |
